# Measured values: patent US20240279288A1, “APPLICATION OF PLANT JAZ PROTEINS AND DERIVED POLYPEPTIDES IN PREVENTION AND TREATMENT OF HUMAN AND ANIMAL TUMORS” (ANYANG INSTITUTE OF SINO-COTTON INDUSTRY INNOVATION, priority 2021, published 2024)
# T1: NMYC (Homo sapiens, UniProt P04198)
# T1 construct: with the full length of c-Myc and NMYC, respectively; expressed in transfected cells; host or cells: yeast Y2HGold
# T1 sequence (P04198 1-464): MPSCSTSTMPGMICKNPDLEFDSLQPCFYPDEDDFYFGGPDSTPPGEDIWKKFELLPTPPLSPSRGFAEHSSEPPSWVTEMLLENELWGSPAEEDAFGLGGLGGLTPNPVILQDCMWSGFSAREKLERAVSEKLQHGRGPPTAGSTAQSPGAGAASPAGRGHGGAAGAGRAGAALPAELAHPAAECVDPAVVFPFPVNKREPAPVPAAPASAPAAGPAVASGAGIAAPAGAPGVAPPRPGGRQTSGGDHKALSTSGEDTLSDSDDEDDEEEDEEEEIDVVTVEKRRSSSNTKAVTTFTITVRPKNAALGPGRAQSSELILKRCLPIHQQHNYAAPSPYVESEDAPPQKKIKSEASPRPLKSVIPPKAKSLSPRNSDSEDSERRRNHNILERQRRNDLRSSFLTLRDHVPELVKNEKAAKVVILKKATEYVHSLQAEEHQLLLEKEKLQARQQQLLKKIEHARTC
# How the values were obtained:
# Assay type in all cases: binding
# NMYC = molecular target: T1, NMYC; experiment: CO-IP with NMYC in HEK293 cells
# Description: Steps of method of CO-IP experiment: Non-denaturing lysate was added to 293T cell culture plate (Pricella, Cat. No.: CL-0005), and the cells were completely lysed at 4° C. The lysate was centrifuged at 12,000 rpm for 10 min and the supernatant was collected. The corresponding antibody was added to the obtained non-denatured protein solution, which was incubated overnight at 4° C. Pierce™ protein A/G magnetic agarose (Thermo Fisher Scientific, Inc.) were washed with lysis buffer, followed by addition pre-treated beads to the cell lysate, and incubation at room temperature for 2 hours. The mixture was centrifuged at 4° C., 2,500 rpm for 5 min with supernatant removed, and the agarose beads were washed 5 times with 1 ml of lysis buffer. An appropriate amount of protein loading buffer was added to the pellet, and the sample was incubated in water bath at 100° C. for 10 min. The band of interest was detected by Western blotting.
# Immunoprecipitation method (method of the experiment as Example 3) was used.
# c-Myc-215aa = molecular target: T2, c-Myc-215aa (Homo sapiens, UniProt P01106); experiment: Yeast two hybrid and LUC with c-Myc truncated to first 215 amino acids
# T2 construct: expressed in transfected cells
# T2 sequence (P01106 1-215): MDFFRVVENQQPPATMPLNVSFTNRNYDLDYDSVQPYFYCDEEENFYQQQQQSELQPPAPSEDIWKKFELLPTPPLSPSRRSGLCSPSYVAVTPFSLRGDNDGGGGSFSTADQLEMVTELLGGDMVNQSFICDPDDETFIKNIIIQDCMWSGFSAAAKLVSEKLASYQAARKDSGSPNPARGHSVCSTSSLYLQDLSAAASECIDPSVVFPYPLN
# Source text: […]
# D3 domain deficient uPAR = molecular target: T3, D3 domain deficient uPAR (Homo sapiens, UniProt Q03405, DEL192-274); experiment: Yeast two hybrid with D3 domain deficient uPAR
# T3 construct: expressed in transfected cells; host or cells: yeast Y2HGold
# T3 sequence (Q03405 with tags, fused parts or gaps DEL192-274): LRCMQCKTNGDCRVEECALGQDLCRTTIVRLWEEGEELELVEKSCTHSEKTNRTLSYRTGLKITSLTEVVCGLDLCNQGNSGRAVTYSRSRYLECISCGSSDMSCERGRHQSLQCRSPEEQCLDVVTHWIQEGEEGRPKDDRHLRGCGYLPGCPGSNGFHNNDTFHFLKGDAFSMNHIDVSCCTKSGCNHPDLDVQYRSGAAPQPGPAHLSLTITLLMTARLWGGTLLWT
# Source text: […]
molecule,measurement,setting,value
"GhJAZ1: cotton JAZ1 protein, gene number Gh_A05G0260, sequence SEQ ID No. 4; prokaryotically expressed with His tag, about 30 KD (protein, His tag, prokaryotically expressed with His tag, about 30 KD) MSSCSESTAMKPARSPEKPSFAQTCNLLSQYLKEKGSFGDLSLGMTCNVEANGTPVVPPPTMNLFPLNDKSDDVCGRNGGNPKNLTSMDLFPQQAGLASKDDSPNKLEPQTAPMTIFYGGQVIVFNDFPANKAKEIMLLASNSSSQSNNSFNPIPFTSSIARSPIESSIGVPPTSKPVHPAQRAVPGDLPIARRASLHRFLEKRKDRITAKAPYQINNSAAAPSLSGDNKSWLGLAAQSP",interaction with NMYC,NMYC,interacted
same,interaction with first 215 amino acids truncated c-Myc,c-Myc-215aa,strong interactions
same,interaction with D3 domain deficient uPAR,D3 domain deficient uPAR,significantly weakened to none
